The record followed here is article doi:10.1101/2025.08.21.671625, “α-catenin phosphorylation is actomyosin-sensitive and required for epithelial barrier functions through Afadin” (bioRxiv, 2025).

The target of the assay is T1, full length αE-cat R551A (human, UniProt P35221 1-906, R551A).
T1 construct: αE-catenin (CTNNA1), human, full length, M3-domain salt-bridge mutant R551A; also called GST-αE-catenin (human) R551A
T1 sequence (looked up): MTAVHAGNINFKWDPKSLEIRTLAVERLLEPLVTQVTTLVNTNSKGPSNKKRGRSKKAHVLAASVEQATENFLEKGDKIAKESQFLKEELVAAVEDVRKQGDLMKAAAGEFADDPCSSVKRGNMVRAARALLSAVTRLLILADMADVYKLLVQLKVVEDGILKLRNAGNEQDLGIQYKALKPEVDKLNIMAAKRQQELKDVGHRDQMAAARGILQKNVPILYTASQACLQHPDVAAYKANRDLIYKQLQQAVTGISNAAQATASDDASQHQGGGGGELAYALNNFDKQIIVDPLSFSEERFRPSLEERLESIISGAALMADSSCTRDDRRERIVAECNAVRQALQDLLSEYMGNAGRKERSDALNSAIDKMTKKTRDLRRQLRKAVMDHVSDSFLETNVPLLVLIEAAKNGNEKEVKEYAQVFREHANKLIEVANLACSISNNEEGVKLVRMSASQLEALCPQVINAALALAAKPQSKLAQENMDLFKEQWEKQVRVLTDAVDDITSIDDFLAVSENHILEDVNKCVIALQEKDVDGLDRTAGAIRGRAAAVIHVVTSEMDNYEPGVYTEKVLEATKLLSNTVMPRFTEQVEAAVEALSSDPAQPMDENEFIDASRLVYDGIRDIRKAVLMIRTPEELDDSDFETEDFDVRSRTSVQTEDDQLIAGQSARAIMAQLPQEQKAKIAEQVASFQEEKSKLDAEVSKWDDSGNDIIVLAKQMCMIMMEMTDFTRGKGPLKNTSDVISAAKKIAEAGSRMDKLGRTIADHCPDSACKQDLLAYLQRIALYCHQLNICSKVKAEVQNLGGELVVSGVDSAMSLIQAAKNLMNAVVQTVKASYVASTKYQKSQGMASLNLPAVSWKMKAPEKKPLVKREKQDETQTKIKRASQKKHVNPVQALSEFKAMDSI
Nature of the assay: pull-down; GST-Afdn-CC-ABR (or GST control) pre-bound to glutathione resin, mixed with α-cat prey proteins, washed, eluted with free glutathione; interaction strength assessed by Coomassie staining. The conditions noted are these: both partners purified.

B1: GST-Afadin-Coiled-coil α-cat binding region (Afadin-CC-ABR; amino acids 1391–1449) (domain or fragment, rat)
chain: MDLPLPPPPANQAAPQSAQVAAAERKKREEHQRWYEKEKARLEEERERKRREQERKLGQ
notes: cDNA from the Takai lab; also called GST-Afadin-CC-ABR; GST-Afdn-CC-ABR; not shown: GST, N-terminal, kept
On to B1, for which the binding result was “binds”.
